Data reported in the supplement of paper PMC9876800.

System: peptide library, one residue held at a place counted from the S/T acceptor
Assay: relative phosphorylation of the sub-library (ratio to the mean residue at this position); higher = residue favoured
Settings: human
Procedure, shortened: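 Relative sub-library phosphorylation, a ratio to the mean residue at that position, was obtained by phosphorimaging and densitometry of spots on streptavidin membranes. Before capture, purified recombinant kinases were incubated for 90 min under kinase-specific conditions with 50 μM biotinylated degenerate peptide sub-libraries and 50 μM ATP spiked with γ-32P-ATP. Each sub-library fixed one residue at one position around a central Ser/Thr.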

Chain of TAOK2, construct: aa1-350 (Q9UL54 1-350, looked up): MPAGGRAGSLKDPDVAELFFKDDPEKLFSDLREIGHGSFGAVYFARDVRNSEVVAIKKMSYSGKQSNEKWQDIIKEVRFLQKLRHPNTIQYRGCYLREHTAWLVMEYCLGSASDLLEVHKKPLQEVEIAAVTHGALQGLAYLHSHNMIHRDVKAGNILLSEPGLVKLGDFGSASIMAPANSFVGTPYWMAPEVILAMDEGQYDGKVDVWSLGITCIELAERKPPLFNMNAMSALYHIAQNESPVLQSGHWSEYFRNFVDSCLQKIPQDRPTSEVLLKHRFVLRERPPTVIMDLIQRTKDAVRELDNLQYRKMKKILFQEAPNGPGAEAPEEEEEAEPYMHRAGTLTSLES
Chain of TLK1, construct: Full length (Q9UKI8 whole entry, looked up): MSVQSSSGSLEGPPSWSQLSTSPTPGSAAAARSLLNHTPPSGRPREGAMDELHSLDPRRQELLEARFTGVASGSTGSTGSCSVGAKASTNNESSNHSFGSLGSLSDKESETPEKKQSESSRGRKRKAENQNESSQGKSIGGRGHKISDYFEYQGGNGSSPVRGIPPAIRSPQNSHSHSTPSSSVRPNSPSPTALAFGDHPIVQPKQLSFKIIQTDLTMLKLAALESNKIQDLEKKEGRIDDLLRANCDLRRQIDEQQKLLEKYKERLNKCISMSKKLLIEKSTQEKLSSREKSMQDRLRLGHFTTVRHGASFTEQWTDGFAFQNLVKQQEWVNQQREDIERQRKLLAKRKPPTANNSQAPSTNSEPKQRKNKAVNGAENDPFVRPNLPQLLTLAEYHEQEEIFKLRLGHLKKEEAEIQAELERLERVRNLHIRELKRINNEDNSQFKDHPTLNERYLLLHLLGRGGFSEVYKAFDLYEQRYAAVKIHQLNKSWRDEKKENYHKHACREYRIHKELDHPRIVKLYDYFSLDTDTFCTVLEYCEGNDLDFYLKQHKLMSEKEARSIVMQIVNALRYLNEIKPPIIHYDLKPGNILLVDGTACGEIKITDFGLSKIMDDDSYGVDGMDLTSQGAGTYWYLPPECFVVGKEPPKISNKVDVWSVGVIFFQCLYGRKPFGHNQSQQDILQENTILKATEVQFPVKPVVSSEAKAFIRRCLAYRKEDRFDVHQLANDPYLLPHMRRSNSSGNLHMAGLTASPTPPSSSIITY
Chain of TGFBR2, construct: aa190-end (P37173 190-567, looked up): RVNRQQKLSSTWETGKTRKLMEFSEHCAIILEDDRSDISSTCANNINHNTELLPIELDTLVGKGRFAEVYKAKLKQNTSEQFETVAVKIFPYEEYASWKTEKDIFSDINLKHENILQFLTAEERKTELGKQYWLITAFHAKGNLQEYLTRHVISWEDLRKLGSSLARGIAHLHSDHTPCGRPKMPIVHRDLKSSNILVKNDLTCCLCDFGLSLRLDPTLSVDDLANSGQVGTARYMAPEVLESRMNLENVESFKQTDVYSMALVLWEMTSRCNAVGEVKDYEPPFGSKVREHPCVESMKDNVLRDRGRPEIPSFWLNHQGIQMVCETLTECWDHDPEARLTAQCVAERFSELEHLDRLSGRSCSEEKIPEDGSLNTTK

TAOK2, construct: aa1-350 (from UniProt Q9UL54)
relative phosphorylation
Settings	at +1	at +2	at +3	at +4	at -1	at -2	at -3	at -4	at -5
A fixed	0.607	0.791	0.808	0.75	0.832	0.94	0.901	0.992	1.03
D fixed	0.505	0.606	0.532	0.619	0.726	0.706	0.741	0.931	1.01
E fixed	0.496	0.483	0.501	0.593	0.566	0.621	0.725	0.92	0.888
F fixed	1.23	0.651	0.845	0.887	0.938	1.4	0.806	0.907	0.896
G fixed	0.606	0.697	0.953	0.937	1.45	1.13	1.34	1.14	1.13
H fixed	0.855	0.993	0.924	1.04	1.28	1.01	1.06	1.08	1.06
I fixed	1.47	0.723	0.761	0.763	0.561	0.703	0.642	0.746	0.73
K fixed	0.753	2.65	2	1.72	1.11	0.981	2.14	1.46	1.45
L fixed	1.49	0.644	0.807	0.778	1.1	0.709	0.672	0.781	0.767
M fixed	1.49	0.734	0.735	0.764	1.26	0.978	0.828	0.857	0.827
N fixed	0.64	1.24	0.876	0.845	1.16	0.972	0.944	1.1	1.05
P fixed	0.589	0.76	0.906	0.834	0.667	0.876	0.777	0.965	0.969
Q fixed	0.727	0.884	0.838	0.949	0.851	0.896	1	1.01	0.977
R fixed	0.778	2.81	2.84	2.19	1.27	1.1	1.59	1.28	1.38
V fixed	1.09	0.812	0.753	0.738	0.583	0.731	0.672	0.818	0.889
W fixed	2.32	0.69	1.04	1.35	1.1	1.08	1.02	1	0.986
Y fixed	1.35	0.835	0.873	1.24	1.54	2.16	1.13	1.01	0.96
pThr fixed	0.639	0.557	0.614	0.55	0.605	0.742	0.817	0.964	1
pTyr fixed	0.577	0.54	0.626	0.609	1.27	0.822	0.909	1.03	1.1

TGFBR2, construct: aa190-end (from UniProt P37173)
relative phosphorylation
Settings	at +1	at +2	at +3	at +4	at -1	at -2	at -3	at -4	at -5
A fixed	0.597	1.09	0.846	0.874	0.646	0.441	0.835	0.987	1
D fixed	0.508	0.616	0.509	0.57	0.715	4.02	1.25	1.01	0.775
E fixed	0.77	0.466	0.485	0.529	0.775	5.47	1.24	0.907	0.713
F fixed	1.27	0.826	1.04	0.789	1.02	0.412	0.859	0.952	0.97
G fixed	0.63	1.36	1.29	1.08	0.67	0.665	1.05	1.08	1.11
H fixed	0.872	1.16	1.18	1.09	1.04	0.478	0.882	1.13	1.1
I fixed	1.69	1.1	1.05	1.06	0.757	0.327	0.748	0.851	0.9
K fixed	0.531	1.26	1.12	1.43	1.03	0.447	0.855	0.91	1.2
L fixed	1.32	0.584	1.07	0.839	1.38	0.366	0.717	0.814	0.901
M fixed	2.09	0.826	0.922	0.919	1.34	0.484	0.907	0.872	0.809
N fixed	0.801	0.891	0.941	0.85	0.812	0.877	0.982	1.08	0.908
P fixed	0.271	0.89	1.12	1.33	1.1	0.365	1.09	1	0.95
Q fixed	1.36	1.08	0.778	0.932	1.01	0.598	0.985	0.898	0.848
R fixed	0.834	1.36	1.32	1.23	0.911	0.886	1.72	1	1.17
V fixed	1.36	1.18	1.01	0.964	1.11	0.332	0.794	0.897	0.933
W fixed	0.946	1.29	1.18	1.47	1.19	0.419	1.12	1.59	1.58
Y fixed	1.14	1.02	1.15	1.06	1.49	0.41	0.973	1.02	1.13
pThr fixed	1.55	0.529	0.488	0.539	0.594	1.2	0.884	0.863	0.765
pTyr fixed	0.53	0.432	0.685	0.483	0.951	0.441	0.778	0.63	0.746

TLK1, construct: Full length (from UniProt Q9UKI8)
relative phosphorylation
Settings	at +1	at +2	at +3	at +4	at -1	at -2	at -3	at -4	at -5
A fixed	0.502	0.943	1.34	0.901	1.02	1.28	1.23	0.986	0.846
D fixed	0.279	1.17	0.745	0.602	2.36	3.12	2.28	1.26	0.993
E fixed	0.353	0.499	0.939	0.52	1.98	3.77	1.44	1.01	0.812
F fixed	0.586	1.4	1.32	1.77	0.517	0.384	0.887	1.51	1.46
G fixed	0.296	0.832	1.13	0.978	0.518	0.875	0.741	0.765	0.693
H fixed	0.917	1.63	1.06	0.957	1.08	0.843	1.14	1.12	0.909
I fixed	1.06	0.658	0.707	0.968	0.717	0.384	0.688	1.24	1.06
K fixed	0.848	0.636	0.646	0.891	1.02	0.512	0.856	0.757	0.952
L fixed	1.49	1.02	0.72	1.02	0.887	0.371	0.679	0.984	0.936
M fixed	2.43	1.6	0.993	0.964	0.751	0.588	0.907	0.896	0.826
N fixed	1.66	0.582	0.636	0.674	1.44	1.35	1.09	0.598	0.609
P fixed	0.217	0.821	1.29	1.38	0.364	0.484	0.856	0.554	0.897
Q fixed	2.14	0.964	0.808	0.722	0.808	1.11	0.775	0.871	0.697
R fixed	1.98	0.664	0.848	0.815	1.27	0.504	1.01	0.795	1.32
V fixed	0.996	0.569	0.809	0.81	0.789	0.497	0.659	1.21	1.16
W fixed	0.669	2.09	1.6	1.77	0.633	0.46	0.836	1.26	1.43
Y fixed	0.577	0.931	1.41	1.26	0.831	0.47	0.932	1.2	1.41
pThr fixed	0.472	0.804	0.79	0.807	0.694	1.76	1.85	1.18	0.601
pTyr fixed	0.518	1.39	1.48	1.08	1.61	2.32	1.4	1.55	1.68
